Changes are numbered by the printed parent chain.
T1: CD19 on Nalm6-luc tumor cells (CD19+BCMA-) (UniProt P15391 20-556, limits assumed)
T1 sequence (looked up): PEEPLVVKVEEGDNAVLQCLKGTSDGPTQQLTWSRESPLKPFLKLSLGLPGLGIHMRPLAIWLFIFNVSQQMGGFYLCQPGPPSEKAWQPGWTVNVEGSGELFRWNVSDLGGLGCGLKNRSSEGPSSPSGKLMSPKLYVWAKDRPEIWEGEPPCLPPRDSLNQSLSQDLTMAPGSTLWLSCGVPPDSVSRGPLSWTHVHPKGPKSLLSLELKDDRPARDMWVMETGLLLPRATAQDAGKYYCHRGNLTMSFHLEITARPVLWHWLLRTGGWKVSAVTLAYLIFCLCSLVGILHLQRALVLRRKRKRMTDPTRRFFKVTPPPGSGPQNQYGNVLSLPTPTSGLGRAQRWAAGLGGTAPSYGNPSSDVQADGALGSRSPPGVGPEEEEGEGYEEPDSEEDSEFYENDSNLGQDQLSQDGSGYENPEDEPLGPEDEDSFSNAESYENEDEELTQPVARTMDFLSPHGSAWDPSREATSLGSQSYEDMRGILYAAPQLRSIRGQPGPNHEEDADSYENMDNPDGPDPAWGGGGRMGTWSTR

B1: B19 CAR (BCMA CAR and CD19-mutant CAR expressed in parallel on T cells) (other)
chain 1: DIVLTQSPPSLAMSLGKRATISCRASESVTILGSHLIHWYQQKPGQPPTLLIQLASNVQTGVPARFSGSGSRTDFTLTIDPVEEDDVAVYYCLQSRTIPRTFGGGTKLEIKGGGGSGGGGSGGGGSQIQLVQSGPELKKPGETVKISCKASGYTFTDYSINWVKRAPGKGLKWMGWINTETREPAYAYDFRGRFAFSLETSASTAYLQINNLKYEDTATYFCALDYSYAMDYWGQGTSVTVSSTTTPAPRPPTPAPTIASQPLSLRPEACRPAAGGAVHTRGLDFACDIYIWAPLAGTCGVLLLSLVITLYCKRGRKKLLYIFKQPFMRPVQTTQEEDGCSCRFPEEEEGGCELRVKFSRSADAPAYQQGQNQLYNELNLGRREEYDVLDKRRGRDPEMGGKPRRKNPQEGLYNELQKDKMAEAYSEIGMKGERRRGKGHDGLYQGLSTATKDTYDALHMQALPPR
chain 2: DIQMTQTTSSLSASLGDRVTISCRASQDISKYLNWYQQKPDGTVKLLIYHTSRLHSGVPSRFSGSGSGTDYSLTISNLEQEDIATYFCQQGNTLPYTFGGGTKLEITGGGGSGGGGSGGGGSEVKLQESGPGLVAPSQSLSVTCTVSGVSLPDYGVSWIRQPPRKGLEWLGVIWGSETTYYNSALKSRLTIIKDNSKSQVFLKMNSLQTDDTAIYYCAKHYYYGGSYAMDYWGQGTSVTVSSIEVMYPPPYLDNEKSNGTIIHVKGKHLCPSPLFPGPSKPFWVLVVVGGVLACYSLLVTVAFIIFWVRSKRSRLLHSDYMFMTPRRPGPTRKHYQPYAPPRDFAAYRSRVKFSRSADAPAYQQGQNQLYNELNLGRREEYDVLDKRRGRDPEMGGKPRRKNPQEGLYNELQKDKMAEAYSEIGMKGERRRGKGHDGLYQGLSTATKDTYDALHMQALPPR
B2: B19-wildtype CAR (BCMA CAR and CD19-wildtype CAR expressed in parallel on T cells) (other)
chain 1: B1 chain 1
chain 2: B1 chain 2 with F322N

Biological target: T1, CD19 on Nalm6-luc tumor cells …
Test: cell-based or functional assay

| Binder | tumor cell killing rate, Nalm6-luc, E:T 1:8, 72 h luciferase assay [%] | tumor cell killing rate, Nalm6-luc, E:T 1:16, 72 h luciferase assay [%] |
| --- | --- | --- |
| B1 | 71.8 | 49 |
| B2 | 55 | 30.6 |

Source: patent publication US20260191957A1 (NOVATIM IMMUNE THERAPEUTICS ZHEJIANG, published 2026)
